Some results are limits rather than exact numbers.

Experiment [1] concerns the target Donor (Alexa 488)-labeled, biotinylated Avi-C-Aβ42 (Avi-D-Aβ42) (UniProt P05067). Put plainly: FRET or BRET.
In experiment [2] the target is Donor-labeled tetramerization domain (TD) of p53 with AviTag (Avi-D-TD). In words: FRET or BRET.

For “Acceptor (Alexa 594)-labeled C-Aβ42 (A-Aβ42) (from UniProt P05067 672-713) (peptide)”, in experiment [1], the dissociation constant Kd turned out to be 240 µM and the stoichiometry N was more than 10.

In experiment [2], “Acceptor-labeled tetramerization domain (TD) of p53 (TD-A) (domain or fragment)” had a stoichiometry N of 4.

The values are drawn from doi:10.1101/2020.09.10.290023.
